Data from patent US11945881B2, “Neoantigens expressed in ovarian cancer and their uses” (Janssen Biotech, Inc., priority 2020, dated 2024).

Key:
CD8+ T cells = assay: exogenous autologous normal donor restimulation assay, TNFα/IFNγ double positive CD8+ T cells by flow cytometry; assay type: cell-based, human; conditions: for Fold change (CD8+) vs. DMSO: maximum CD8+ T-cell response (TNFα and IFNγ); for Fold change (CD8+) vs. DMSO / Frequency (TNFα + IFNγ + CD8 T cells): donor independent, peptide pool 10 μg/mL, healthy donors; for Frequency (TNFα + IFNγ + CD8 T cells): maximum CD8+ T-cell response; for Immunogenic (yes/no): positive if CD8+ and/or CD4+ double positive TNFα/IFNγ frequency >=3-fold over DMSO and at least 0.01%
CD4+ T cells = assay: exogenous autologous normal donor restimulation assay, TNFα/IFNγ double positive CD4+ T cells by flow cytometry; assay type: cell-based, human; conditions: donor independent, peptide pool 10 μg/mL, healthy donors; for Fold change (CD4+) vs. DMSO: maximum CD4+ T-cell response (TNFα and IFNγ); for Frequency (TNFα + IFNγ + CD4 T cells): maximum CD4+ T-cell response

Molecule | Fold change (CD8+) vs. DMSO (CD8+ T cells) [fold] | Frequency (TNFα + IFNγ + CD8 T cells) (CD8+ T cells) [%] | Immunogenic (yes/no) (CD8+ T cells) | Fold change (CD4+) vs. DMSO (CD4+ T cells) [fold] | Frequency (TNFα + IFNγ + CD4 T cells) (CD4+ T cells) [%]
PGHGAICREEV [AS62, neoantigen, alternative splicing of IMPG2] | 28.06 | 0.055 | Yes | 14.25 | 0.063
RASCGAQKACDVNQLTSS [FUS17, neoantigen, gene fusion C20orf204->TCEA2] | 13.53 | 0.23 | Yes | 6.91 | 0.045
ARLRELRQCGGGRGKRGQGWGVRDETITGRPAVLGSPFLSPALAPPSRLMGDLWDGQSAGWSPGSPASPFCGGW (neoantigen, alternative splicing of HSF4) ARLRELRQCGGGRGKRGQGWGVRDETITGRPAVLGSPFLSPALAPPSRLMGDLWDGQSAGWSPGSPASPFCGGW | 66.2 | 0.62 | Yes | 6.63 | 0.043
HFVRSQDKGMVWTPEPSALPRTPRRHPGLSLCSQWGGLRVGPPAARPGWSLAHVLRVTLLQFHPNPGKETQKKQRCPKEDPSRIWRA (neoantigen, alternative splicing of RUFY4) HFVRSQDKGMVWTPEPSALPRTPRRHPGLSLCSQWGGLRVGPPAARPGWSLAHVLRVTLLQFHPNPGKETQKKQRCPKEDPSRIWRA | 69.96 | 1.87 | Yes | 279.88 | 0.28
LKQDVRSGGPGARQLRGGLLRQAAPPGRRTRPFPHRARLHTALPTARLPGGPAAASRPAFRAAPRESGASVPGPSASPG (neoantigen, alternative splicing of IL17RC) LKQDVRSGGPGARQLRGGLLRQAAPPGRRTRPFPHRARLHTALPTARLPGGPAAASRPAFRAAPRESGASVPGPSASPG | 25.75 | 0.36 | Yes | 10.73 | 0.12
RDLQCPKKTQTPQAQSRLESERKKNTLTWLVPTPWDWRQWSTAPSRGLVWPPPPVDYELWKSS (neoantigen, alternative splicing of LRRC75B) RDLQCPKKTQTPQAQSRLESERKKNTLTWLVPTPWDWRQWSTAPSRGLVWPPPPVDYELWKSS | 143.98 | 1.28 | Yes | 10.84 | 0.047
HQYIVVQDIHTETQHSALGAQPADSIPPFLQHTLQHLACPSLELPGNEQARREKRRRDDAFSDSL (neoantigen, alternative splicing of SRGAP3) HQYIVVQDIHTETQHSALGAQPADSIPPFLQHTLQHLACPSLELPGNEQARREKRRRDDAFSDSL | 14.89 | 0.16 | Yes | 12.03 | 0.078
